Experimental data published in the Immune Epitope Database (IEDB).

Assays:
HLA-B*83:01 = experiment: IEDB peptide-MHC binding, purified MHC/competitive/fluorescence; filed as Kd, often an IC50 or EC50 that approximates it; ≥ and ≤ were set here for values at or beyond the usual limits of such assays; settings: source organism: Influenza A virus (A/swine/Hannover/1/1981(H1N1))
HLA-C*14:02 = experiment: as above; settings: source organism: Influenza A virus (A/swine/Hannover/1/1981(H1N1))
HLA-B*45:06 = experiment: as above; settings: source organism: Influenza A virus (A/swine/Hannover/1/1981(H1N1))
HLA-B*27:20 = experiment: as above; settings: source organism: Influenza A virus (A/swine/Hannover/1/1981(H1N1))
HLA-B*15:42 = experiment: as above; settings: source organism: Influenza A virus (A/swine/Hannover/1/1981(H1N1))
HLA-B*07:02 [1] = experiment: as above
HLA-A*11:01 [2] = experiment: as above; settings: source organism: Bacillus anthracis str. A0488
HLA-B*53:01 = experiment: as above; settings: source organism: Bacillus anthracis str. A0488
HLA-B*46:01 [3] = experiment: as above; settings: source organism: Bacillus anthracis str. A0488
HLA-A*30:01 [4] = experiment: as above; settings: source organism: Bacillus anthracis str. A0488
HLA-B*40:01 [5] = experiment: as above; settings: source organism: Bacillus anthracis str. A0488
HLA-A*24:03 = experiment: as above; settings: source organism: Bacillus anthracis str. A0488
HLA-A*01:01 = experiment: as above
HLA-B*18:01 = experiment: as above; settings: source organism: Bacillus anthracis str. A0488
HLA-B*27:05 [6] = experiment: as above; settings: source organism: Bacillus anthracis str. A0488
HLA-B*57:01 = experiment: as above
HLA-A*66:01 = experiment: as above; settings: source organism: Bacillus anthracis str. A0488
HLA-A*29:02 = experiment: as above; settings: source organism: Bacillus anthracis str. A0488
HLA-A*26:01 = experiment: as above
HLA-B*14:02 = experiment: as above; settings: source organism: Bacillus anthracis str. A0488
HLA-A*02:01 [7] = experiment: as above; settings: source organism: Bacillus anthracis str. A0488
HLA-A*03:01 = experiment: as above; settings: source organism: Bacillus anthracis str. A0488
HLA-B*58:01 [8] = experiment: as above; settings: source organism: Bacillus anthracis str. A0488
HLA-B*27:03 = experiment: as above; settings: source organism: Bacillus anthracis str. A0488
HLA-A*68:02 = experiment: as above
HLA-B*44:02 = experiment: as above; settings: source organism: Bacillus anthracis str. A0488
HLA-B*51:01 = experiment: as above; settings: source organism: Bacillus anthracis str. A0488
HLA-A*30:02 = experiment: as above; settings: source organism: Bacillus anthracis str. A0488
HLA-B*08:01 = experiment: as above; settings: source organism: Bacillus anthracis str. A0488
HLA-B*15:01 [9] = experiment: as above; settings: source organism: Bacillus anthracis str. A0488
HLA-B*39:01 = experiment: as above; settings: source organism: Bacillus anthracis str. A0488
HLA-C*12:03 = experiment: IEDB peptide-MHC binding, purified MHC/direct/fluorescence; filed as Kd, often an IC50 or EC50 that approximates it; ≥ and ≤ were set here for values at or beyond the usual limits of such assays; settings: source organism: Bacillus anthracis str. A0488
HLA-A*30:01 [10] = experiment: as above; settings: source organism: Variola virus
HLA-A*80:01 = experiment: as above; settings: source organism: Camelpox virus M-96
HLA-B*46:01 [11] = experiment: as above; settings: source organism: Yellow fever virus
HLA-A*26:02 [12] = experiment: as above; settings: source organism: Yellow fever virus
HLA-B*15:01 [13] = experiment: as above; settings: source organism: Yellow fever virus
HLA-A*26:03 = experiment: IEDB peptide-MHC binding, purified MHC/competitive/fluorescence; filed as Kd, often an IC50 or EC50 that approximates it; ≥ and ≤ were set here for values at or beyond the usual limits of such assays; settings: source organism: Mycobacterium tuberculosis C
HLA-A*26:02 [14] = experiment: as above; settings: source organism: Mycobacterium tuberculosis C
HLA-A*69:01 = experiment: as above; settings: source organism: Mycobacterium tuberculosis C
HLA-B*15:17 = experiment: as above; settings: source organism: Mycobacterium tuberculosis C
HLA-B*35:01 = experiment: as above; settings: source organism: Mycobacterium tuberculosis C
HLA-A*11:01 [15] = experiment: IEDB peptide-MHC binding, purified MHC/direct/fluorescence; filed as Kd, often an IC50 or EC50 that approximates it; ≥ and ≤ were set here for values at or beyond the usual limits of such assays; settings: source organism: Mycobacterium tuberculosis
HLA-B*48:01 = experiment: as above; settings: source organism: Mycobacterium tuberculosis
HLA-B*40:01 [16] = experiment: as above; settings: source organism: Mycobacterium tuberculosis
HLA-B*27:05 [17] = experiment: as above; settings: source organism: Mycobacterium tuberculosis
HLA-A*02:01 [18] = experiment: as above; settings: source organism: Mycobacterium tuberculosis
HLA-B*58:01 [19] = experiment: as above; settings: source organism: Mycobacterium tuberculosis
HLA-A*31:01 = experiment: as above; settings: source organism: Mycobacterium tuberculosis
HLA-B*07:02 [20] = experiment: as above; settings: source organism: Mycobacterium tuberculosis
[21] = source organism: Bacillus anthracis str. A0488
[22] = source organism: Mycobacterium tuberculosis C

## RRRFVQNAL
HLA-B*83:01
  Kd: ≥ 5 µM
HLA-C*14:02
  Kd: 0.21 µM
HLA-B*45:06
  Kd: ≥ 5 µM
HLA-B*27:20
  Kd: 0.0013 µM
HLA-B*15:42
  Kd: ≥ 5 µM
HLA-B*07:02 [1]; source organism: Influenza A virus (A/swine/Hannover/1/1981(H1N1))
  Kd: ≥ 20 µM

## FVMPIFEQI
HLA-A*11:01 [2]
  Kd: ≥ 5 µM
HLA-B*53:01
  Kd: ≥ 5 µM
HLA-B*46:01 [3]
  Kd: ≥ 20 µM
HLA-A*30:01 [4]
  Kd: ≥ 5 µM
HLA-B*40:01 [5]
  Kd: ≥ 5 µM
HLA-A*24:03
  Kd: 0.0032 µM
HLA-A*01:01; [21]
  Kd: ≥ 5 µM
HLA-B*18:01
  Kd: ≥ 20 µM
HLA-B*27:05 [6]
  Kd: ≥ 5 µM
HLA-B*57:01; [21]
  Kd: ≥ 20 µM
HLA-A*66:01
  Kd: ≥ 5 µM
HLA-A*29:02
  Kd: ≥ 5 µM
HLA-A*26:01; [21]
  Kd: ≥ 20 µM
HLA-B*14:02
  Kd: ≥ 5 µM
HLA-A*02:01 [7]
  Kd: ≥ 5 µM
HLA-A*03:01
  Kd: ≥ 20 µM
HLA-B*58:01 [8]
  Kd: ≥ 5 µM
HLA-B*27:03
  Kd: ≥ 20 µM
HLA-A*68:02; [21]
  Kd: 0.0003 µM
HLA-B*44:02
  Kd: ≥ 5 µM
HLA-B*51:01
  Kd: ≥ 20 µM
HLA-A*30:02
  Kd: ≥ 5 µM
HLA-B*08:01
  Kd: ≥ 5 µM
HLA-B*15:01 [9]
  Kd: ≥ 20 µM
HLA-B*07:02 [1]; [21]
  Kd: ≥ 5 µM
HLA-B*39:01
  Kd: ≥ 20 µM
HLA-C*12:03
  Kd: 0.068 µM

## ITYLMNRFK
HLA-A*30:01 [10]
  Kd: ≤ 0.001 µM
HLA-A*80:01
  Kd: ≥ 20 µM

## LVLAVGPAY
HLA-B*46:01 [11]
  Kd: ≥ 20 µM
HLA-A*26:02 [12]
  Kd: 0.544 µM
HLA-B*15:01 [13]
  Kd: 0.0543 µM

## LTFLDCLYY
HLA-A*26:03
  Kd: ≥ 20 µM
HLA-A*01:01; [22]
  Kd: 0.004 µM
HLA-A*26:02 [14]
  Kd: ≥ 20 µM
HLA-B*57:01; [22]
  Kd: 0.187 µM
HLA-A*69:01
  Kd: ≥ 20 µM
HLA-A*26:01; [22]
  Kd: 0.111 µM
HLA-B*15:17
  Kd: 0.0005 µM
HLA-A*68:02; [22]
  Kd: ≥ 20 µM
HLA-B*35:01
  Kd: 0.0713 µM
HLA-A*11:01 [15]
  Kd: 0.0733 µM
HLA-B*48:01
  Kd: ≥ 20 µM
HLA-B*40:01 [16]
  Kd: ≥ 20 µM
HLA-B*27:05 [17]
  Kd: ≥ 20 µM
HLA-A*02:01 [18]
  Kd: ≥ 20 µM
HLA-B*58:01 [19]
  Kd: 0.145 µM
HLA-A*31:01
  Kd: ≥ 20 µM
HLA-B*07:02 [20]
  Kd: ≥ 20 µM
